The target in the test is HIV-1 Integrase (IN) from NL4-3, Flag-tagged (HIV-1 NL4-3). The experiment in a line: AlphaScreen or HTRF; HTRF-based IN-IN multimerization assay with Flag-tagged and His-tagged IN from NL4-3; with the small molecule MUT-A, signal compared to the IN-IN signal without MUT-A.

In turn, “HIV-1 Integrase (IN) from NL4-3, Flag-tagged (enzyme)” returned a maximum multimerization signal plateau with MUT-A (percent of the IN-IN signal without MUT-A) of 600%.

These data come from article PMC5680779.
